Assay results published in paper PMC12002313 (Proceedings of the National Academy of Sciences of the …, 2025).
Substitutions are numbered along the chain they refer to. Names may count otherwise.

Assays:
[1] = target: PTg (genetically detoxified pertussis toxin) (Bordetella pertussis, UniProt P04978+P04979); type: binding
[2] = target: pertussis toxin (PT), enzymatically active holotoxin (Bordetella pertussis, strain of bought …, UniProt P04977;P04978;P04979;P0A3R5;P04981); test: ELISA
[3] = target: pertussis toxin S5 subunit, as it stands in PTg (Bordetella pertussis, UniProt P04981); test: cryo-EM structure
[4] = target: pertussis toxin S3 subunit, as it stands in PTg (Bordetella pertussis, UniProt P04979); test: cryo-EM structure
[5] = target: pertussis toxin S2 subunit, as it stands in PTg (Bordetella pertussis, UniProt P04978); test: cryo-EM structure

CC(=O)N[C@H]1[C@H]([C@H](O)[C@H](O)CO)O[C@@](O[C@H]2[C@@H](O)[C@@H](CO)O[C@@H](O[C@H]3[C@H](O[C@@H]4O[C@@H](C)[C@@H](O)[C@@H](O)[C@@H]4O)[C@@H](NC(C)=O)C(O)O[C@@H]3CO)[C@@H]2O)(C(=O)O)C[C@@H]1O (stereo partly drawn) [sialyl Lewis^X blood group antigen, Neu5Acα2-3Galβ1-4(Fucα1-3)GlcNAc]
RFU [1]: PTg alone binds to sialylated N-glycans, asialo-N-glycans, and other carbohydrates (such as the sialyl Lewis^X

B1: hu1B7mut IgG (hu1B7 HC S56A, Q61A, Q64A) (antibody, V domains shown)
VH: QVQLVQSGAEVKKPGASVKVSCKASGYKFTSYWMHWVRQAPGQGLEWIGNIFPGSGATNYAAKFAGRVTLTVDTSTSTAYMELSSLRSEDTAVYYCTRWLSGAYFDYWGQGTTVTVSS
VL: QIVLTQSPATLSVSPGERVTLTCSASSSVSFMYWYQQKPGRAPKPLIYLTSNLPSGVPARFSGSGSGTSYTLTINSLEAEDAATYYCQQWSSHPPTFGSGTKLEIK
binding result [2]: binds

B2: hu1B7 Fab (Fab, V domains shown)
VH: B1 VH with A57S, A62Q, A65Q
VL: B1 VL
binding result [3]: binds

B3: hu1B7 IgG (antibody, V domains shown)
VH: B1 VH with A57S, A62Q, A65Q
VL: B1 VL
binding result [2]: binds

B4: hu11E6 Fab (Fab, V domains shown)
VH: EVQVVESGGGLVQPGRSLRLSCTTSGFTFTDYYVSWVRQAPGKALEWLGFIRNKVNGYTTEFSSSVKGRFTISRDNSKSILYLQMNSLKIEDTAVYYCARVSYYGRGWYFDYWGQGTTLTVSS
VL: DIVMTQSPSSLSASVGDRVTISCRASQDIDNYLSWFQQKPGGTVKLLIYYTSRLHSGVPSRFSGSGSGTDYTLTISSLQPEDIATYFCQQGNTFPWTFGGGTKLEIK
binding result [4]: binds | binding result [5]: binds
